Laboratory results from patent US20200199244A1 (published 2020).

T1: Macaca fascicularis CD40 (Macaca fascicularis (cynomolgus monkey), UniProt P25942 21-277 (human entry))
T1 chain: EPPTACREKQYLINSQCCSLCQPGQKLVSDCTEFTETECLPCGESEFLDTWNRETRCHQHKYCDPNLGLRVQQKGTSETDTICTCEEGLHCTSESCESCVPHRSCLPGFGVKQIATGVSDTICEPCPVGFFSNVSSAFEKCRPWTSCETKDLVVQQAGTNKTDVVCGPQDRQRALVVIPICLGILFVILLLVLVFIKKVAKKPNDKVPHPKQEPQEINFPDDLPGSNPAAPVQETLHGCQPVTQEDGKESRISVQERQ


molecular target: T2, human CD40 expressed on stably transfected CHO-DG44 cells (human, UniProt P25942 21-277); test: CHO-CD40 cell RBA, competition with IZ-CD40L
T2 construct: also called CHO-CD40
Description: The mixture was incubated in the absence of light for 6 hours.

Row | Binder | EC50 [nM]
1 | BMS3h-202-10 (other, dAb, single VH) VH: EVQLLESGGGLVQPGGSLRLSCAASGFTFPTAEMLWVRQAPGKGLEWVSSISASGGSTYYADSVKGRFTISRDNSKNTLYLQMNSLRAEDTAVYYCAKEPVYYVATFDYWGQGTLVTVSS | 7200
2 | BMS3h-202-11 (other, dAb, single VH) VH: EVQLLESGGGLVQPGGSLRLSCAASGFTFPTAEMLWVRKAPGKGLEWVSSISASGGSTYYADSVKGRFTISRDNSKNTLYLQMNSLRAEDAAVYYCAKEPVSYVATFDYWGQGTLVTVSS | 8300
3 | BMS3h-37-2 (other, dAb, single VH) VH: EVQLLESGGGLVQPGGSLRLSCAASGFTFEWYEMQWVRRAPGKGLEWVSAISGDGYRTYYADSVKGRFTISRDNSKNTLYLQMNSLRAEDTAVYYCAKELGYFDYWGRGTLVTVSS | 32
4 | BMS3h-37-4 (other, dAb, single VH) VH: EVQLLESGGGLVQPGGSLRLSCAASGFTFEWYEMQWVRKAPGKGLEWVSAISGDGYRTYYADSVKGRFTISRDNSKNTLYLQMNSLRAEDTAVYYCAKELGYFDYWGRGTLVTVSS | 45
5 | BMS3h-37-11 (other, dAb, single VH) VH: EVQLLESGGGLVQPGGSLRLSCAASGFTFEWYEMQWVRKAPGKGLEWVSAISGDGYRTYYADSVKGRFTISRDNSKNTLYLQMNSLRAEDTAVYYCAKELGYFDYRGRGTLVTVSS | 27

molecular target: T3, human CD40 (human, UniProt P25942 21-277); test: cell-based or functional assay

Row | Binder | ICAM-1 Cell Assay EC50 (nM), 10% bovine serum [nM] | ICAM-1 Cell Assay EC50 (nM), 10% human serum [nM]
6 | DMS0684 BMS3h-56-258-G4S-DOM7h-11-90 (bispecific antibody) EVQLLESGGGLVQPGGSLRLSCAASGFTFRDYEMWWVRQAPGKGLERVSAINPQGTRTYYADSVKGRFTISRDNSKNTLYLQMNSLRAEDTAVYYCAKLPFYFHEWGQGTLVTVSSGGGGSDIQMTQSPSSLSASVGDRVTITCRASRPIGTMLSWYQQKPGKAPKLLILAFSRLQSGVPSRFSGSGSGTDFTLTISNLQPEDFATYYCAQAGTHPTTFGQGTKVEIKR | 37.9 | 74.3
7 | DMS0683 BMS3h-56-258-ASTSGPS-DOM7h-11-90 (bispecific antibody) EVQLLESGGGLVQPGGSLRLSCAASGFTFRDYEMWWVRQAPGKGLERVSAINPQGTRTYYADSVKGRFTISRDNSKNTLYLQMNSLRAEDTAVYYCAKLPFYFHEWGQGTLVTVSSASTSGPSDIQMTQSPSSLSASVGDRVTITCRASRPIGTMLSWYQQKPGKAPKLLILAFSRLQSGVPSRFSGSGSGTDFTLTISNLQPEDFATYYCAQAGTHPTTFGQGTKVEIKR | 32.4 | 50.9
8 | DMS0682 BMS3h-56-258-TVA-DOM7h-11-90 (bispecific antibody) EVQLLESGGGLVQPGGSLRLSCAASGFTFRDYEMWWVRQAPGKGLERVSAINPQGTRTYYADSVKGRFTISRDNSKNTLYLQMNSLRAEDTAVYYCAKLPFYFHEWGQGTLVTVSSTVADIQMTQSPSSLSASVGDRVTITCRASRPIGTMLSWYQQKPGKAPKLLILAFSRLQSGVPSRFSGSGSGTDFTLTISNLQPEDFATYYCAQAGTHPTTFGQGTKVEIKR | 10.2 | 94.8
9 | DMS0679 DOM7h-11-90-G4S-BMS3h-56-258 (bispecific antibody) DIQMTQSPSSLSASVGDRVTITCRASRPIGTMLSWYQQKPGKAPKLLILAFSRLQSGVPSRFSGSGSGTDFTLTISNLQPEDFATYYCAQAGTHPTTFGQGTKVEIKRGGGGSEVQLLESGGGLVQPGGSLRLSCAASGFTFRDYEMWWVRQAPGKGLERVSAINPQGTRTYYADSVKGRFTISRDNSKNTLYLQMNSLRAEDTAVYYCAKLPFYFHEWGQGTLVTVSS | 21.7 | 39.2
10 | DMS0685 BMS3h-56-258-(G4S)3-DOM7h-11-90 (bispecific antibody) EVQLLESGGGLVQPGGSLRLSCAASGFTFRDYEMWWVRQAPGKGLERVSAINPQGTRTYYADSVKGRFTISRDNSKNTLYLQMNSLRAEDTAVYYCAKLPFYFHEWGQGTLVTVSSGGGGSGGGGSGGGGSDIQMTQSPSSLSASVGDRVTITCRASRPIGTMLSWYQQKPGKAPKLLILAFSRLQSGVPSRFSGSGSGTDFTLTISNLQPEDFATYYCAQAGTHPTTFGQGTKVEIKR | 31.9 | 62.4
11 | DMS0680 DOM7h-11-90-(G4S)3-BMS3h-56-258 (bispecific antibody) DIQMTQSPSSLSASVGDRVTITCRASRPIGTMLSWYQQKPGKAPKLLILAFSRLQSGVPSRFSGSGSGTDFTLTISNLQPEDFATYYCAQAGTHPTTFGQGTKVEIKRGGGGSGGGGSGGGGSEVQLLESGGGLVQPGGSLRLSCAASGFTFRDYEMWWVRQAPGKGLERVSAINPQGTRTYYADSVKGRFTISRDNSKNTLYLQMNSLRAEDTAVYYCAKLPFYFHEWGQGTLVTVSS | 39.3 | 74.2
12 | DMS0681 DOM7h-11-90-(G4S)5-BMS3h-56-258 (bispecific antibody) DIQMTQSPSSLSASVGDRVTITCRASRPIGTMLSWYQQKPGKAPKLLILAFSRLQSGVPSRFSGSGSGTDFTLTISNLQPEDFATYYCAQAGTHPTTFGQGTKVEIKRGGGGSGGGGSGGGGSGGGGSGGGGSEVQLLESGGGLVQPGGSLRLSCAASGFTFRDYEMWWVRQAPGKGLERVSAINPQGTRTYYADSVKGRFTISRDNSKNTLYLQMNSLRAEDTAVYYCAKLPFYFHEWGQGTLVTVSS | 43.6 | 53.3
13 | DMS0677 DOM7h-11-90-TVA-BMS3h-56-258 (bispecific antibody) DIQMTQSPSSLSASVGDRVTITCRASRPIGTMLSWYQQKPGKAPKLLILAFSRLQSGVPSRFSGSGSGTDFTLTISNLQPEDFATYYCAQAGTHPTTFGQGTKVEIKRTVAEVQLLESGGGLVQPGGSLRLSCAASGFTFRDYEMWWVRQAPGKGLERVSAINPQGTRTYYADSVKGRFTISRDNSKNTLYLQMNSLRAEDTAVYYCAKLPFYFHEWGQGTLVTVSS | 21.7 | 20.4
14 | DMS0686 BMS3h-56-258-(G4S)5-DOM7h-11-90 (bispecific antibody) EVQLLESGGGLVQPGGSLRLSCAASGFTFRDYEMWWVRQAPGKGLERVSAINPQGTRTYYADSVKGRFTISRDNSKNTLYLQMNSLRAEDTAVYYCAKLPFYFHEWGQGTLVTVSSGGGGSGGGGSGGGGSGGGGSGGGGSDIQMTQSPSSLSASVGDRVTITCRASRPIGTMLSWYQQKPGKAPKLLILAFSRLQSGVPSRFSGSGSGTDFTLTISNLQPEDFATYYCAQAGTHPTTFGQGTKVEIKR | 48.3 | 66.6

Molecular target: T1, Macaca fascicularis CD40
Test: cell-based or functional assay

Row | Binder | hIZCD40L-driven Cyno B Cell Proliferation EC50 [nM]
15 | BMS3h-312 (other) VH: EVQLLESGGGLVQPGGSLRLSCAASGFTFDDEKMLWVRQAPGKGLEWVSSISVSGLHTYYADSVKGRFTISRDNSKNTLYLQMNSLRAEDTAVYYCAKEEAGSWSFDYWGQGTLVTVSS | > 7000
16 | BMS3h-309 (other) VH: EVQLLESGGGLVQPGGSLRLSCAASGFTFSGHDMSWVRQAPGKGLEWVSAISPHGTHTYYADSVKGRFTISRDNSKNTLYLQMNSLRAEDTAVYYCAKGIRGWIGHDTQPFDYWGQGTLVTVSS | 838

molecular target: T3, human CD40; test: cell-based or functional assay; remark: another data set of the same source

Row | Binder | hIZCD40L-driven Human B Cell Proliferation EC50 [nM]
17 | BMS3h-312 (other) VH: EVQLLESGGGLVQPGGSLRLSCAASGFTFDDEKMLWVRQAPGKGLEWVSSISVSGLHTYYADSVKGRFTISRDNSKNTLYLQMNSLRAEDTAVYYCAKEEAGSWSFDYWGQGTLVTVSS | 1100
18 | BMS3h-309 (other) VH: EVQLLESGGGLVQPGGSLRLSCAASGFTFSGHDMSWVRQAPGKGLEWVSAISPHGTHTYYADSVKGRFTISRDNSKNTLYLQMNSLRAEDTAVYYCAKGIRGWIGHDTQPFDYWGQGTLVTVSS | 648
